In paper PMC7748142, “ATM inhibition enhances Auranofin-induced oxidative stress and cell death in lung cell lines” (PLoS ONE, 2020):

Biological target: the molecule itself
Assay: non-reducing SDS-PAGE with Western blot; A549 or MLF cells treated with Auranofin (A549: 10 uM, MLF: 2 uM) alone or with KU55933 (10 uM, 1 h pre-treatment); lysed in CHAPS buffer with 100 mM NEM; boiled in non-reducing sample buffer; disulfide-linked dimers

Protein | stoichiometry N
peroxiredoxin 3 (PRDX3), A549 cells (enzyme, human (endogenous in A549), UniProt P30048 62-256, looked up, peroxiredoxin 3, endogenous in A549 cells, detected by anti-PRDX3 blot; source: endogenous, A549 lysate) APAVTQHAPYFKGTAVVNGEFKDLSLDDFKGKYLVLFFYPLDFTFVCPTEIVAFSDKANEFHDVNCEVVAVSVDSHFSHLAWINTPRKNGGLGHMNIALLSDLTKQISRDYGVLLEGSGLALRGLFIIDPNGVIKHLSVNDLPVGRSVEETLRLVKAFQYVETHGEVCPANWTPDSPTIKPSPAASKEYFQKVNQ | 2
peroxiredoxin 1 (PRDX1) (enzyme, human (endogenous in HEK 293T and A549), UniProt Q06830 1-199, looked up, peroxiredoxin 1, endogenous in human cell lines, detected by anti-PRDX1 blot; source: endogenous, HEK 293T lysate (trapping); endogenous, A549 lysate (dimer analysis)) MSSGNAKIGHPAPNFKATAVMPDGQFKDISLSDYKGKYVVFFFYPLDFTFVCPTEIIAFSDRAEEFKKLNCQVIGASVDSHFCHLAWVNTPKKQGGLGPMNIPLVSDPKRTIAQDYGVLKADEGISFRGLFIIDDKGILRQITVNDLPVGRSVDETLRLVQAFQFTDKHGEVCPAGWKPGSDTIKPDVQKSKEYFSKQK | 2
peroxiredoxin 3 (PRDX3), murine lung fibroblasts (enzyme, mouse (endogenous in MLFs), UniProt P20108 63-257, looked up, peroxiredoxin 3, endogenous in murine lung fibroblasts, detected by anti-PRDX3 blot; source: endogenous, murine lung fibroblast (MLF) lysate) TPAVTQHAPYFKGTAVVNGEFKELSLDDFKGKYLVLFFYPLDFTFVCPTEIVAFSDKANEFHDVNCEVVAVSVDSHFSHLAWINTPRKNGGLGHMNITLLSDITKQISRDYGVLLESAGIALRGLFIIDPNGVVKHLSVNDLPVGRSVEETLRLVKAFQFVETHGEVCPANWTPESPTIKPSPTASKEYFEKVHQ | 2
